From article PMC11102866, “Nucleosome-bound NR5A2 structure reveals pioneer factor mechanism by DNA minor groove anchor competition”

B1: 149 bp endogenous mouse DNA (dsDNA)
DNA 1: GGACTGGGACTTCTAAAACAAGACCTTAGTTAGGTGTGGTGCTGCATGCCTTTAATCTCAGCAGTCTGGAGGCAGAGACAGGGAGGTCTCTATGAGTTCAAGGCCAGCCTAATCTACACAGTGAGTTCCAGGACAGTCAGGGCTATAGA
DNA 2: TCTATAGCCCTGACTGTCCTGGAACTCACTGTGTAGATTAGGCTGGCCTTGAACTCATAGAGACCTCCCTGTCTCTGCCTCCAGACTGCTGAGATTAAAGGCATGCAGCACCACACCTAACTAAGGTCTTGTTTTAGAAGTCCCAGTCC
B2: 25 bp DNA with Nr5a2 consensus motif (dsDNA)
DNA 1: GAGAGAGTCAAGGCCATGGCTCACT
DNA 2: AGTGAGCCATGGCCTTGACTCTCTC

Assays:
NR5A2 D159A [1] = molecular target: T1, NR5A2 D159A (Homo sapiens, UniProt O00482 1-541, D159A); assay: EMSA; similar to wild type; EMSA: 20 mM Tris-HCl pH 7.5, 120 mM NaCl, 1 mM MgCl2, 10 uM ZnCl2, 1 mM DTT, 100 ug/ml BSA, room temperature, 30 min; 50 nM DNA or nucleosome; conditions: protein: recombinant; tags: N-terminal His6-TEV, His6 removed with TEV protease
NR5A2 wild type = NR5A2 wild type (Homo sapiens, UniProt O00482 1-541); assay: EMSA; EMSA: 20 mM Tris-HCl pH 7.5, 120 mM NaCl, 1 mM MgCl2, 10 uM ZnCl2, 1 mM DTT, 100 ug/ml BSA, room temperature, 30 min; 50 nM DNA or nucleosome; conditions: protein: recombinant; tags: N-terminal His6-TEV, His6 removed with TEV protease
NR5A2 D159A [2] = molecular target: T1, NR5A2 D159A; assay: EMSA; slightly less than wild type, not significant; EMSA: 20 mM Tris-HCl pH 7.5, 120 mM NaCl, 1 mM MgCl2, 10 uM ZnCl2, 1 mM DTT, 100 ug/ml BSA, room temperature, 30 min; 50 nM DNA or nucleosome; conditions: protein: recombinant; tags: N-terminal His6-TEV, His6 removed with TEV protease; blunt

Binder | binding result (NR5A2 D159A [1]) | binding result (NR5A2 wild type) | binding result (NR5A2 D159A [2])
B1 | binds | binds | 
B2 |  |  | binds
